Measurements taken from US20050143559.
Read-outs that look alike come from different tables or passages of the source.

Assays:
[1] = tested on: tryparedoxin peroxidase isolated from Crithidia fasciculata
[2] = target: tryparedoxin peroxidase isolated from Crithidia fasciculata; remark: listed apart in the source

Row | Molecule | specific activity (coupled NADPH consumption assay) [1] | specific activity (coupled NADPH consumption assay) [2] [U/mg]
1 | authentic tryparedoxin I isolated from Crithidia fasciculata | 2.3 U/mg for the authentic enzyme | 
2 | TQSLPSSFLASLEHHHHHH [recombinant tryparedoxin II containing a His tag (expressed from pET/TXN II H6 in E. coli BL21(DE3))] |  | 7.7
